Measurements as given in article PMC6838084.

Experiments:
[1] = biological target: soluble C-terminal deletion mutant of human α2δ-1 with an N-terminal double strep II-tag (α2δ-1S NTST) (human); assay: ELISA; ELISA-style titration; α2δ-1S NTST (20 µg/ml) coated; TSP-4 11-1,505 nM; TBS pH 7.4 without Ca2+; RT; apparent KD
[2] = biological target: α2 peptide chain of human α2δ-1 with an N-terminal double strep II-tag (α2 NTST) (human); assay: ELISA; ELISA-style ligand binding assay; α2δ-1S NTST (20 or 10 µg/ml) or α2 NTST (10 µg/ml) coated on 96-well plates; soluble TSP at a single concentration of 1,000 nM; TBS pH 7.4 with 1 mM Ca2+; 2 h at RT; detection with TSP-specific antibody/antiserum (Fig. 3A, 3C)
[3] = biological target: soluble C-terminal deletion mutant of human α2δ-1 with an N-terminal double strep II-tag (α2δ-1S NTST) (human); assay: ELISA; ELISA-style titration; α2δ-1S NTST (20 µg/ml) coated; TSP-4 11-1,505 nM; TBS pH 7.4 + 1 mM Ca2+; RT; apparent KD

Sequence of thrombospondin-4 (TSP-4), recombinant full-length rat, N-terminal double strep II-tag (P49744 43-980): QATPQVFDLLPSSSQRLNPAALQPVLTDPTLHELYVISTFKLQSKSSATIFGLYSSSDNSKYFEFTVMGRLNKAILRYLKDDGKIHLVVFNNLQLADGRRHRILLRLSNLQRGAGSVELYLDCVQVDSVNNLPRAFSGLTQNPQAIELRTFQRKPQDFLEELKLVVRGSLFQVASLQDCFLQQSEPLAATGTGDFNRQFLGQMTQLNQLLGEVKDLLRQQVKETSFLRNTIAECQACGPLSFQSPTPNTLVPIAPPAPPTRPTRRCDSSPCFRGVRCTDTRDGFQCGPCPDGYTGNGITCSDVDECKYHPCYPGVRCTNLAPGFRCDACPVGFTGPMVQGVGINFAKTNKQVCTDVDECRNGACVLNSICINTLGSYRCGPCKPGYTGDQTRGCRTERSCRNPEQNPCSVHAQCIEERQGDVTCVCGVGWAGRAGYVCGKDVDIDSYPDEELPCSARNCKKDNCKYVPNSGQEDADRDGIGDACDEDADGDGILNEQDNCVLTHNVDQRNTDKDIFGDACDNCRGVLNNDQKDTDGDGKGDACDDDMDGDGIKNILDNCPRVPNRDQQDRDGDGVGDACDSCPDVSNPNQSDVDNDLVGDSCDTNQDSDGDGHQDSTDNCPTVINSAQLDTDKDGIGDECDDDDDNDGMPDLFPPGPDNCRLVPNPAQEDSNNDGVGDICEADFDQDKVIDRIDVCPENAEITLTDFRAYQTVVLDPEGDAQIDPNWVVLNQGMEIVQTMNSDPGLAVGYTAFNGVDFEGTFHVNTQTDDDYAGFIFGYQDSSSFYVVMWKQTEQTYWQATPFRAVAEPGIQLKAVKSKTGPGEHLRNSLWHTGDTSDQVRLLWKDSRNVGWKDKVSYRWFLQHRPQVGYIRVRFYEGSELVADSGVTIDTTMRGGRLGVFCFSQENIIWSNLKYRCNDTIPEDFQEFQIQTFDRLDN

thrombospondin-4 (TSP-4), recombinant full-length rat, N-terminal double strep II-tag (from UniProt P49744 43-980) (natural protein)
Kd [1]: 198 nM
fold change of the binding signal against α2δ-1S NTST [2]: 2 fold
Kd [3]: 153 nM
